Source: patent publication US8357518B2, “Thermostable enzymes for the hydrolysis of mannan-containing polysaccharides” (The Board of Trustees of the University of Illinois, priority 2010, dated 2013)

Tests used:
Type in all cases: biochemical, Caldanaerobius polysaccharolyticus
[1] = substrate: OC[C@H]1O[C@H](OC[C@H]2OC(O)[C@@H](O)[C@@H](O)[C@@H]2O[C@@H]2O[C@H](CO)[C@@H](O)[C@H](O)[C@@H]2O)[C@H](O)[C@@H](O)[C@H]1O; test: Catalytic efficiency with oligosaccharides, HPAEC (Man5B); settings: other: Man5B 3 nM, oligosaccharide 30 μM, citrate buffer 50 mM, pH 5.5, 5 min, triplicate
Method: (§1) Cloning, expression, and purification of Man5A-TM1, Man5A-TM2 and Man5B. C. polysaccharolyticus was cultured in TYG medium and DNA was isolated from mid-log cultures and purified using the Qiagen DNeasy Blood and Tissue kit with an integrated RNase treatment step. The genome of C. polysaccharolyticus was partially sequenced by the W. M. Keck Biotechnology Center at the University of Illinois at Urbana-Champaign. A Newbler assembly was generated which is comprised of ½ plate of FLX PE 454 data and ½ plate of 8 kb paired-end GSFLX Titanium data using a Genome Sequencer instrument from 454 Life Sciences (Branford, Conn.). The partial genome sequence was uploaded onto the Rapid Annotation using Subsystem Technology (RAST) server (Aziz et al., BMC Genomics, 9:75, 2008). Auto-annotation of the C. polysaccharolyticus partial genome sequence identified ORF0760 as a gene predicted to encode a bifunctional β-D-mannanase/endoglucanase (Man5B). Man5A was previously identified in a recombinant phage library of C. polysaccharolyticus genomic DNA, which was screened for endoglucanase activity (Cann et al., J Bacteriol, 181:1643, 1999) and the full sequence of this gene was also identified in the partial genome sequence for C. polysaccharolyticus.
(§2) The DNA sequence corresponding to man5B was amplified by the PicoMaxx high fidelity PCR kit using genomic DNA as the template with the primer set Man5B-Forward and Man5B-Reverse (Table 1-1). The primers were engineered to incorporate a 5′-[…] (SEQ ID NO: 54) extension in Man5B-F and a 5′-[…] (SEQ ID NO: 55) extension in Man5B-R, which facilitated subsequent directional cloning. The resultant man5B amplicon was then digested with T4 DNA polymerase exonuclease activity, annealed with a similarly digested pET-46b vector and introduced into E. coli JM109 by electroporation. Man5A-TM1 was amplified using genomic DNA as template with primers Man5A-TM1-F and Man5A-TM1-R (Table 1-1). The primer sets for Man5A-TM1 and Man5A-TM2 were designed to include 5′-NdeI and 3′-XhoI restriction sites for subsequent directional cloning. The resulting amplicons were then cloned into the pGEM-T vector via TA-cloning and subcloned in-frame with the hexahistidine (His6) encoding sequence of a modified pET-28a expression vector via its NdeI-XhoI polylinker site. The truncated protein Man5A-TM2 originally named ManA-SLH-CBD was cloned as described in a previous study (Cann et al., J Bacteriol, 181:1643, 1999). Expression of each of the resulting gene constructs yielded fusion proteins containing an N-terminal polyhistidine tag sequence to facilitate affinity purification via metal chelate chromatography. The resulting plasmid constructs pET46-Man5B, pET28a-Man5A-TM1, and pET-28a-Man5A-TM2 were sequenced to confirm the integrity of the cloned genes (W. M. Keck Center for Comparative and Functional Genomics at the University of Illinois at Urbana-Champaign).
(§3) The plasmid constructs were then introduced into E. coli BL-21 CodonPlus (DE3) RIL competent cells by heat shock, and grown overnight in lysogeny broth (LB) agar medium supplemented with ampicillin (100 μg/mL) and chloramphenicol (50 μg/mL) at 37° C. After 12 h, single colonies were selected and used to inoculate fresh LB (10 mL) supplemented with the antibiotics above at the same concentrations, followed by culturing with aeration for 8 h at 37° C. […]

[2] = substrate: OC[C@H]1O[C@@H](O[C@H]2[C@H](O)[C@H](O)C(O)O[C@@H]2CO)[C@@H](O)[C@@H](O)[C@@H]1O; test: as above; settings: other: Man5B 3 nM, oligosaccharide 30 μM, citrate buffer 50 mM, pH 5.5, 5 min, triplicate
Method: as §1, §2, §3

[3] = substrate: OC[C@H]1O[C@H](OC[C@H]2OC(O)[C@@H](O)[C@@H](O)[C@@H]2O[C@@H]2O[C@H](CO)[C@@H](O[C@@H]3O[C@H](CO)[C@@H](O)[C@H](O)[C@@H]3O)[C@H](O)[C@@H]2O)[C@H](O)[C@@H](O)[C@H]1O; test: as above; settings: other: Man5B 3 nM, oligosaccharide 30 μM, citrate buffer 50 mM, pH 5.5, 5 min, triplicate
Method: as §1, §2, §3

[4] = substrate: OC[C@H]1O[C@@H](O[C@H]2[C@H](O)[C@@H](O)[C@H](O[C@H]3[C@H](O)[C@@H](O)[C@H](O[C@H]4[C@H](O)[C@@H](O)[C@H](O[C@H]5[C@H](O)[C@@H](O)C(O)O[C@@H]5CO)O[C@@H]4CO)O[C@@H]3CO)O[C@@H]2CO)[C@H](O)[C@@H](O)[C@@H]1O; test: as above; settings: other: Man5B 3 nM, oligosaccharide 30 μM, citrate buffer 50 mM, pH 5.5, 5 min, triplicate
Method: as §1, §2, §3

[5] = substrate: OC[C@H]1O[C@@H](O[C@H]2[C@H](O)[C@H](O)[C@H](O[C@H]3[C@H](O)[C@H](O)[C@H](O[C@H]4[C@H](O)[C@H](O)[C@H](O[C@H]5[C@H](O)[C@H](O)C(O)O[C@@H]5CO)O[C@@H]4CO)O[C@@H]3CO)O[C@@H]2CO)[C@@H](O)[C@@H](O)[C@@H]1O; test: as above; settings: other: Man5B 3 nM, oligosaccharide 30 μM, citrate buffer 50 mM, pH 5.5, 5 min, triplicate
Method: as §1, §2, §3

[6] = substrate: OC[C@H]1O[C@@H](O[C@H]2[C@H](O)[C@H](O)[C@H](O[C@H]3[C@H](O)[C@H](O)[C@H](O[C@H]4[C@H](O)[C@H](O)[C@H](O[C@H]5[C@H](O)[C@H](O)C(O)O[C@@H]5CO)O[C@@H]4CO)O[C@@H]3CO)O[C@@H]2CO)[C@@H](O)[C@@H](O)[C@@H]1O; test: Catalytic efficiency with oligosaccharides, HPAEC (Man5A-TM1); settings: other: Man5A-TM1 0.3 μM, oligosaccharide 30 μM, citrate buffer 50 mM, pH 5.5, 5 min, triplicate
Method: as §1, §2
The plasmid constructs were then introduced into E. coli BL-21 CodonPlus (DE3) RIL competent cells by heat shock, and grown overnight in lysogeny broth (LB) agar medium supplemented with ampicillin (100 μg/mL) and chloramphenicol (50 μg/mL) at 37° C. After 12 h, single colonies were selected and used to inoculate fresh LB (10 mL) supplemented with the antibiotics above at the same concentrations, followed by culturing with aeration for 8 h at 37° C. The pre-cultures were then inoculated into fresh LB (1 L) supplemented with ampicillin and chloramphenicol and the cultures were incubated at 37° C. with vigorous aeration (225 rpm/min). The cultures were grown to an optical density of 0.3 at 600 nm, and the temperature was shifted to 16° C. and gene expression was induced by the addition of 0.1 mM isopropyl β-D-thiogalactopyranoside (IPTG). […]

| Protein | kcat/Km [1] [M⁻¹ s⁻¹] | kcat/Km [2] [M⁻¹ s⁻¹] | kcat/Km [3] [M⁻¹ s⁻¹] | kcat/Km [4] [M⁻¹ s⁻¹] | kcat/Km [5] | kcat/Km [6] [M⁻¹ s⁻¹] |
| --- | --- | --- | --- | --- | --- | --- |
| Caldanaerobius polysaccharolyticus endo-β-mannanase Man5B, wild type, SEQ ID NO: 31 (Caldanaerobius polysaccharolyticus) (protein) MKKYGFNFQWMYVWEEGREPEPPDKKALDFLAETGFNFVRIPVDYRFWTRNFDYFNPDKKVFEYIDLYLRECSARNIHMCLNLHRAPGYCINRNDIERDNLWLDKRAQDGFVYQWELFAKRYKGVSSKFLSFDLVNEPPNIGQYGLTRENHASLIIRTVEAIRKIDPDREIVIDGLGGGNIAMPELAHLGVVHSGRGYQPMALTHYQASWWDGHKGLPEPYYPDLLWQGKVWNKDTLREYYKPWRDLQQKGVNVHIGEFGCFNKTSNDVAIRWFEDVLSLYKEFEWGYSLWNFKGPFGIVEHGRPGAKYEYYRGFKVDRELLDLLVENRV | 1500 ± 200 | 230 ± 30 | 30000 ± 7000 | 17000 ± 3000 | (2.2 ± 0.3) × 10^2 mM^−1 s^−1 |  |
| Caldanaerobius polysaccharolyticus endo-β-mannanase Man5A truncation mutant Man5A-TM1, SEQ ID NO: 28 (Caldanaerobius polysaccharolyticus) (protein) AGTSGDGRFHVVGNKIVDPDGKDFIIKGVNIQGYRSWEKRSVLQDVHLIADVWKFNTVRLNCFIGQNNWGEGTGANNDIDAIIKAFTAKKVVVEIDLHDTTGYPPLSNPPPAPGQPSLDQAIAWFKELAAKYKDNPYVWFNTMNEPGSSTAPLDPQWKVANEEIIKAIRSTGADNIIVVDGWSYANEGIEQNTPTVDEKRSAVLTYGQDLLNADSAKNTIFAFHNYNEGDIQKKVEDYIDRANAKGLYVFMEEYGKDYSDAAKEGVKSGLQAVMNKGAGRIYWNWDGYDLYDLTSGTGRGSGWEINKTDGSKPTNLSWVGDKIWDDNHGITPTFDDQNPKVDLALERLIANNNGFKAGDKVQFTTFLRNSGDLPIGKDSKVVVKFYVDGVQLGDPVEISGGIAVGQRIPVTSPELTVSKTDFTVKAVIDSSSTYADGAEDAVIENNWIEAAFNSTAPSSGYELVVTGIKITPDTVKEGDYVQAQVTVANQGPEATPVTNIIGWFYVNGYYYTLDDAAKSCAEQDNVTLKPGESITLSTKVKYRAAAPFNFSFVLENLYADDQNQSNNSITVNVPVKMGEGGVNMVSNPGFEDGLDSWQDWQQDMSAVPEAAHNGALGLKIGGGKAAGGGQDIPLKPNTTYILGAWAKFDSKPAGTFDVVVQYHLKDANNTYVQHILNFNETDWTYKQLLFTTPDVFGSTPQLALWKGDTSKANLYVDDVYLVEVSNLIVNGTAENGMDGWPDWGYPVSAVPEAAYGGTKGFKLSGGKQAGMGQKVALKPNTTYILGAWGKFTAKPGTYCDVIVQYHLKDANNTYVQNILRFTETDWTYKQVVFTTPDAFGSDPEFVLWKDDASNADFYADNITLVEV |  |  |  |  |  | 33000 ± 3000 |
